Here are results for one substance from patent publication EP1986009A1.

Some results are limits rather than exact numbers.

This assay concerns the target Recombinant human RAGE/Fc chimera (R&D Systems cat. No. 1145-RG) (human). Nature of the assay: SPR (Biacore), 200 nM protein over immobilized RAGE/Fc, Req or late association response.

Sequence of Recombinant human RAGE/Fc chimera (R&D Systems cat. No. 1145-RG) (human) (Q15109 23-344, change not shown, form in doubt): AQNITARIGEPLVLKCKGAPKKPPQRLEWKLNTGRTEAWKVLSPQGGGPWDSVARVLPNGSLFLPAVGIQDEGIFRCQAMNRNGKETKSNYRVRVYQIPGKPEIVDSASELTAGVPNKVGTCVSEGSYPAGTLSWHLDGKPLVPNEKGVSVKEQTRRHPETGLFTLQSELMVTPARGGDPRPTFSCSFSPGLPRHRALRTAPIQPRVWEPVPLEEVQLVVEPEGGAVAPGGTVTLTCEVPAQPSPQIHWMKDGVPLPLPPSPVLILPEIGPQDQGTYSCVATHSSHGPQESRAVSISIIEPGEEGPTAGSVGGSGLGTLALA

Turning to “Recombinant S100A9, expressed as the full-length sequence of native protein in E. coli (ligand)”, the fold higher binding than the next group of RAGE binders (AnxII, S100A12, and S100A8/9) is above 10 fold.
